Laboratory results as given in patent publication US20110300156A1 (Genmab, published 2011).

B1: anti-TF HuMab 109 (antibody, V domains shown)
VH: QVQLVESGGGVVQPGRSLRLSCPASGFTFSIYAMHWVRQAPGKGLEWVAVVSNDGYNKYYADSVKGRFTISRDNSKDTLYLQMNSLRAEDTAVYYCARDGQLGRGYFDYWGQGTLVTVSS
VL: EIVLTQSPATLSLSPGERAILSCRASQSVSSYLAWYQQKPGQAPRLLIYDASNRATGIPARFSGSGSGTDFTLTISSLEPEDFAVYYCQQRSNWPLTFGGGTKVEIK
notes: Human monoclonal antibody from HuMab mice
B2: anti-TF HuMab 013 (antibody, V domains shown)
VH: EVQLVQSGAEVKKPGESLKISCKGSGYSFTSYWIGWVRQMPGKGLEWMGIIYPGDSDTRYSPSFQGQVTISADKSISTAYLQWSSLKASDTAMYYCARIHRGAGYSSSWPGAFDIWGQGTMVTVSS
VL: DIQMTQSPSSLSASVGDRVTITCRASQGISRWLAWYQQKPEKAPKSLIYAASSLQSGVPSRFSGSGSGTDFTLTISSLQPEDFATYYCQQYDSDPITFGQGTRLEIK
notes: Human monoclonal antibody from HuMab mice; also called HuMab-TF-13

What was measured:
[1] = target: T1, human tissue factor (TF), membrane-bound on cells (human, UniProt P13726 33-295); experiment: FACS, MDA-MB-231 cells
T1 construct: whole, on cells; also called cellular TF
Outline: (§1)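 First, cells suspended at 2×10⁶ cells/ml were exposed to serially diluted antibody for 30 minutes on ice. After three washes, PE-conjugated goat anti-human IgGFc (1:100) was applied for 30 minutes on ice in the dark, then binding was measured by flow cytometry.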

[2] = target: T1, human tissue factor (TF), …; experiment: FACS, A431 cells, 30 µg/mL
Outline: as §1

[3] = target: T1, human tissue factor (TF), …; experiment: FACS, MDA-MB-231 cells, 30 µg/mL
Outline: as §1

[4] = target: T1, human tissue factor (TF), …; experiment: cell-based or functional assay
[5] = target: T1, human tissue factor (TF), …; experiment: FACS, Bx-PC3 cells, 30 µg/mL
Outline: as §1

[6] = target: T2, TFECDHis (extracellular domain of tissue factor, amino acid 1-251, with C-terminal His tag) (human, UniProt P13726 33-251); experiment: competition ELISA, inhibition of FVIIa (100 nM) binding to coated TFECDHis
T2 construct: range 1-251; The stated range 1-251 starts at residue 1 of NP-001984; also called extracellular domain of TF
Procedure: ELISA plates were coated overnight with TFECDHis (0.5 μg/mL, 100 μL per well). Plates were emptied, blocked with PBS containing 2% (v/v) chicken serum (1 hour, RT), and emptied again. […] Plates were washed and incubated with swine-anti-rabbit IgG-HRP antibody (1:2,500; DAKO). After washing, the immune complexes were visualized using ABTS as a substrate.

[7] = target: T1, human tissue factor (TF), …; experiment: FACS, TF transfected CHO cells (S1015-TF), 7.5 µg/mL
Outline: as §1

[8] = target: T1, human tissue factor (TF), …; experiment: cell-based or functional assay; remark: listed apart in the source
[9] = target: T1, human tissue factor (TF), …; experiment: FACS, A431 cells
Outline: as §1

TF (Innovin) [10] = target: T3, TF (Innovin) (UniProt P13726 33-295, limits assumed); experiment: cell-based or functional assay
[11] = target: T1, human tissue factor (TF), …; experiment: FACS, TF transfected CHO cells (S1015-TF)
Outline: as §1

TF (Innovin) [12] = target: T3, TF (Innovin); experiment: cell-based or functional assay; remark: listed apart in the source
[13] = target: T1, human tissue factor (TF), …; experiment: FACS on MDA-MB-231 cells (~900.000 TF molecules/cell) [panel MDA-MB-231 cells]
Procedure: Cells were resuspended in PBS (2×10⁶ cells/ml), put in 96-well V-bottom plates (50 μl/well). 50 μl of serially diluted HuMab in FACS buffer (PBS supplemented with 0.1% BSA and 0.02% Na-azide) was added to the cells and incubated for 30 minutes on ice. After washing three times with FACS buffer, 50 μl of phycoerythrin (PE)-conjugated goat anti-human IgGFc (Jackson ImmunoResearch), diluted 1:100 in FACS buffer, was added. After 30 minutes on ice (in the dark), cells were washed three times, and specific binding of the HuMabs was detected by flow cytometry on a FACSCalibur (BD Biosciences). HuMab-KLH was used as a negative control. Mouse anti-TF followed by PE-conjugated anti-mouse IgGFc was used as positive control. Binding curves were analyzed using non-linear regression (sigmoidal dose-response with variable slope) using GraphPad Prism V4.03 software (GraphPad Software, San Diego, Calif., USA).
Binding of anti-TF HuMabs to membrane-bound TF on cell lines expressing different levels of TF was determined by FACS analysis, essentially as described supra. Mouse anti-TF antibody followed by PE-conjugated anti-mouse IgGFc was used as a positive control. Fluorescence was measured on a FACSCantoII. Binding curves were analyzed essentially as described supra, using GraphPad Prism 5 software. The amount of TF molecules on cell lines was determined by Qifi kit (Dako, Glostrup, Denmark), according to the manufacturer's instructions.

[14] = target: T1, human tissue factor (TF), …; experiment: FACS, Bx-PC3 cells
Outline: as §1

[15] = target: T2, TFECDHis (extracellular domain of …); experiment: SPR BIAcore 3000, HuMab immobilized, TFECDHis analyte
Outline: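 HuMab antibodies (500 RU) amine-coupled on a CM-5 chip; TFECDHis concentration series in HBS-EP run over them at 30 μl/min for 180 sec. Surface regenerated with glycine pH 2.0 or acetate pH 3.0; kinetics from double-referenced 1:1 Langmuir fitting.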

[16] = target: T1, human tissue factor (TF), …; experiment: cell-based or functional assay; remark: listed apart in the source

Binder	EC50 [1] [nM]	Max MFI [2]	Max MFI [3]	% max inhibition of FVIIa induced ERK phosphorylation (A431) [4] [%]	IC50, inhibition of FVIIa induced ERK phosphorylation (A431) [4] [nM]	Max MFI [5]	max inhibition [6] [%]	Max MFI [7]	max inhibition of FVIIa induced IL-8 release (MDA-MB-231) [8] [%]	EC50 [9] [nM]	IC50, inhibition of blood coagulation (TF induced clotting time) (TF (Innovin) [10]) [nM]	EC50 [11] [nM]	% max inhibition of FXa generation (TF (Innovin) [12]) [%]	IC50, inhibition of FXa generation (TF (Innovin) [12]) [nM]	EC50 (read off the curve) [13] [µg/mL]	EC50 [14] [nM]	Kd [15] [nM]	EC50 of ADCC, Bx-PC3 cells [16] [nM]	EC50 of ADCC, MDA-MB-231 cells [16] [nM]	other results
B1	2.16	3120	2050	72	2.42	1320	90	5630	70.4	1.74	7.6	0.92	18	0.09	~0.07	4.04	4.75	0.06	0.12	IC50, inhibition of FVIIa induced IL-8 release (MDA-MB-231) [8]: 13.6 nM
B2	1.58	3620	2450	26	9.11	1300	27	5210	-0.3	8.04	0.6	1.07	31	0.05	~0.1	1.86	2.78	0.07	0.06	IC50 [6]: 19.3 nM
